{"source": "patent US20230242902A1", "about": "“A HIGHLY ERROR-PRONE […] R[…] FOR TARGETED CONTINUOUS EVOLUTION IN VIVO” (The Regents of the University of California, priority 2017, published 2023)", "system": "p2", "experiment": "p2 copy number by mKate2 fluorescence calibrated with qPCR", "assay_type": "cell-based, S. cerevisiae", "conditions": "GA-Y021", "experimental": "To precisely measure p1 and p2 per-base substitution mutation rates, several modifications were made to the small-scale protocol. First, 36 replicates were performed for reconfirmation of candidate TP-DNAP2 mutators, and 48 replicates for genomic and mutual orthogonality experiments. Titers were also determined for each strain after spot plating by pooling the residual volume from 4 replicates and plating dilutions on YPD. The expected number of LEU2 functional mutants (m) was determined by the Ma-Sandri-Sarkar maximum likelihood estimator (as calculated by the FALCOR tool and corrected for partial plating (Foster, 2006, Methods Enzymol, 409:195-213; Sarkar et al., 1992, Genetica, 85:173-179; Hall et al., 2009, Bioinformatics, 25:1564-1565). The mean mKate2 fluorescence was determined from 50,000 event counts on Attune™ NxT Flow Cytometer and converted to p2 copy number by using a calibration curve. To determine per-base substitution rates, the corrected m was normalized to the average cell titer, the p2 copy number, and the target size for functional leu2* reversion (2.33 bp). […]\nA standard curve relating p2 copy number to mKate2 fluorescence was prepared by combining quantitative PCR with flow cytometry. […] All extracts were diluted 4000-fold for use in two distinct qPCR reactions, one to quantify p2-encoded leu2* and the other to quantify the genomic copy of LEU3. […]"}
{"molecule": "WT: wild-type Kluyveromyces lactis DNA polymerase TP-DNAP2, SEQ ID NO:13 (protein, listed as Kluyveromyces lactis) MNDELAFLNSQIDDYSDDIEFLRTEVFRINRYSKSIYSLMKNSSKEAIKETIEFNKYGQEIHSKIKEKEISLIEAIKLMEKKYKYLRSLNKTKDKSKKKKIHTKDIETLKTIYKTKADFDIRNFKNAETFTYENYSLLIPSEKELIDLIPEIEEDYSYYFYVSLTITGPTIFGGVTRKVPIIDTYGDINKDFYNKIKENITKVLDRVPFYEEKESEIICKKVLITLTVNKWESIDKWYKNVKSKSKKFKDFTLFLASDTSKNCVQQCVEYLGGKWNTNYSLEKMIPQQKIVTYIPLLMDIQYVQSMEDLISDFDEPNTDCKNIARLLKWNGHMGVITKIDKDVKINRIQRKRIIDVENKEVKEVFFDIESFSDETKHQIPYLICWSYLGELYYRTGKNCIKEFVEEILSYNVDIILYAWYGSGYDYQHVLPYMKSKCIKDKYIIKNNMITYGELYYENAIIYLKDPYLFILTSLDKASKAFNVINKGEFPHSIIHSWEDLNKILPNWVKIQKRMIEYKDDNKLNIYYKNIEIFENDRNYNTILENAIEYCKVDVLAMEKVWIKFKKLLEKNLNITVSVKTFTLSQLSMKIMESKLPKYVKLYVPTLEEYSKIRNAIYGGRVISKNGIYEENIVYADVVSLYPSAMKLLKHSYGKPKLVDYIDFEKHGIYRVTLLNKHDQEPKNYLNFVPRRINRKLTWEWFKIHEGWYHTYDLIIAKSEGFDIYCHEGFEYPEKDYIFNDFIDTLYSMKETHTACSCEEQPCPIRMVAKIALNGGGYGKFVQKPIDKEIYIVKRDVVAGECDKLQENENGEICIGKRLVKRPLFYNLDSENYDKMIIEKEDEPIYSTQCGISILSASRYRLYKLCKQFENIDIIYSDTDSIFVKQKSVDWELFKSKCGSELGQLDSTIDDTKNAIISKMYIGGAKMYAFEYLNNKNKLITKLHCKGVPNYMLSLNQFKYLMESPDNTIAYKFEIIRRKLVNVITKDLIKDIKQT", "values": [{"measurement": "p2 copy number per cell", "value": 128}]}
